One substance from paper PMC4958246 can be followed below.

The target of the assay is polymerized rabbit skeletal muscle actin (F-actin) (rabbit) (UniProt P68135). Put plainly: co-sedimentation; proteins incubated with polymerized rabbit skeletal actin (40 µl of a 1-mg/ml stock; 50 mM KCl, 2 mM MgCl2, 1 mM ATP); WD0830 at 40 ng/ml final; centrifuged at 14,000 x g 1 h 24°C, then 150,000 x g 1.5 h 24°C; supernatants and pellets on silver-stained SDS-PAGE, densitometry with ImageJ.

In turn, “Wolbachia pipientis wMel protein WD0830 (Wolbachia actin-localizing effector 1) (natural protein)” returned a percent of the protein in the pellet with actin of 24%.
